Measurements taken from the supplement of paper PMC10567573.

B1: PPFIA4 (parent)
chain: YAGNLHESGVHGALLALDENFDHN

Variants of: B1
Assay: protein stability index of a GFP-peptide fusion (GPS, HEK-293T) (PSI 1-6); higher = more stable
Conditions: c terminus: a fixed tail appended
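Also: lentivirally expressed fusions sorted by FACS into six bins by GFP to DsRed ratio, PSI derived from sequencing read proportions per bin multiplied by bin number.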

Variant	protein stability index
YAGNLHESGVHGALLSLDENFDHN [A16S]	3.2
YAGNLHESGVHGALLDLDENFDHN [A16D]	3.85
YAGNLHESGVHGALLQLDENFDHN [A16Q]	3.31
YAGNLHESGVHGALLHLDENFDHN [A16H]	3.25
YAGNLHESGVHGALLYLDENFDHN [A16Y]	2.06
YAGNLHESGVHGALLELDENFDHN [A16E]	4.12
YAGNLHESGVHGALLMLDENFDHN [A16M]	2.43
YAGNLHESGVHGALLILDENFDHN [A16I]	1.97
YAGNLHESGVHGALLRLDENFDHN [A16R]	2.99
YAGNLHESGVHGALLKLDENFDHN [A16K]	2.73
YAGNLHESGVHGALLCLDENFDHN [A16C]	2.39
YAGNLHESGVHGALLLLDENFDHN [A16L]	2.36
YAGNLHESGVHGALLWLDENFDHN [A16W]	3.58
YAGNLHESGVHGALLVLDENFDHN [A16V]	2.31
YAGNLHESGVHGALLTLDENFDHN [A16T]	3.34
YAGNLHESGVHGALLGLDENFDHN [A16G]	1.77
YAGNLHESGVHGALLPLDENFDHN [A16P]	3.43
YAGNLHESGVHGALLNLDENFDHN [A16N]	3.23
YAGNLHESGVHGALLFLDENFDHN [A16F]	3.06
YAGNLHESGVHGALYALDENFDHN [L15Y]	2.31
YAGNLHESGVHGALDALDENFDHN [L15D]	4.06
YAGNLHESGVHGALAALDENFDHN [L15A]	4.13
YAGNLHESGVHGALNALDENFDHN [L15N]	3.89
YAGNLHESGVHGALHALDENFDHN [L15H]	3.31

Variant	protein stability index
YAGNLHESGVHGALIALDENFDHN [L15I]	2.22
YAGNLHESGVHGALEALDENFDHN [L15E]	4.23
YAGNLHESGVHGALTALDENFDHN [L15T]	3.78
YAGNLHESGVHGALMALDENFDHN [L15M]	2.93
YAGNLHESGVHGALQALDENFDHN [L15Q]	3.52
YAGNLHESGVHGALKALDENFDHN [L15K]	3.46
YAGNLHESGVHGALRALDENFDHN [L15R]	2.8
YAGNLHESGVHGALPALDENFDHN [L15P]	4.09
YAGNLHESGVHGALGALDENFDHN [L15G]	3.54
YAGNLHESGVHGALCALDENFDHN [L15C]	3.06
YAGNLHESGVHGALFALDENFDHN [L15F]	2.2
YAGNLHESGVHGALSALDENFDHN [L15S]	3.87
YAGNLHESGVHGALVALDENFDHN [L15V]	3.29
YAGNLHESGVHGALLALDEAFDHN [N20A]	2.68
YAGNLHESGVHGALLALDEWFDHN [N20W]	2.27
YAGNLHESGVHGALLALDEVFDHN [N20V]	2.42
YAGNLHESGVHGALLALDEQFDHN [N20Q]	1.86
YAGNLHESGVHGALLALDEFFDHN [N20F]	2.17
YAGNLHESGVHGALLALDECFDHN [N20C]	2.32
YAGNLHESGVHGALLALDEHFDHN [N20H]	2.48
YAGNLHESGVHGALLALDEGFDHN [N20G]	3.1
YAGNLHESGVHGALLALDEEFDHN [N20E]	3.07
YAGNLHESGVHGALLALDESFDHN [N20S]	2.58
YAGNLHESGVHGALLALDEPFDHN [N20P]	2.63

Variant	protein stability index
YAGNLHESGVHGALLALDEMFDHN [N20M]	2.09
YAGNLHESGVHGALLALDERFDHN [N20R]	2.25
YAGNLHESGVHGALLALDELFDHN [N20L]	1.63
YAGNLHESGVHGALLALDEYFDHN [N20Y]	2.24
YAGNLHESGVHGALLALDEIFDHN [N20I]	1.79
YAGNLHESGVHGALLALDETFDHN [N20T]	2.16
YAGNLHESGVHGALLALDEDFDHN [N20D]	2.98
YAGNLHESGVHGALLALDEKFDHN [N20K]	2.23
YAGNLHESGVHGAVLALDENFDHN [L14V]	2.16
YAGNLHESGVHGASLALDENFDHN [L14S]	3.45
YAGNLHESGVHGAFLALDENFDHN [L14F]	1.81
YAGNLHESGVHGAYLALDENFDHN [L14Y]	2.47
YAGNLHESGVHGAKLALDENFDHN [L14K]	3.15
YAGNLHESGVHGAMLALDENFDHN [L14M]	3.07
YAGNLHESGVHGAWLALDENFDHN [L14W]	1.43
YAGNLHESGVHGAHLALDENFDHN [L14H]	3.8
YAGNLHESGVHGAILALDENFDHN [L14I]	1.97
YAGNLHESGVHGADLALDENFDHN [L14D]	4.59
YAGNLHESGVHGAELALDENFDHN [L14E]	3.83
YAGNLHESGVHGANLALDENFDHN [L14N]	3.8
YAGNLHESGVHGAALALDENFDHN [L14A]	3.27
YAGNLHESGVHGAQLALDENFDHN [L14Q]	4.02
YAGNLHESGVHGATLALDENFDHN [L14T]	3.56
YAGNLHESGVHGAGLALDENFDHN [L14G]	3.63

Variant	protein stability index
YAGNLHESGVHGAPLALDENFDHN [L14P]	4.03
YAGNLHESGVHGARLALDENFDHN [L14R]	3.31
YAGNLHESGVHGACLALDENFDHN [L14C]	2.36
YAGNLHESGVHGALLALDSNFDHN [E19S]	1.54
YAGNLHESGVHGALLALDCNFDHN [E19C]	1.33
YAGNLHESGVHGALLALDLNFDHN [E19L]	1.24
YAGNLHESGVHGALLALDFNFDHN [E19F]	1.61
YAGNLHESGVHGALLALDNNFDHN [E19N]	2.2
YAGNLHESGVHGALLALDTNFDHN [E19T]	2.68
YAGNLHESGVHGALLALDQNFDHN [E19Q]	1.64
YAGNLHESGVHGALLALDDNFDHN [E19D]	2.6
YAGNLHESGVHGALLALDVNFDHN [E19V]	2
YAGNLHESGVHGALLALDINFDHN [E19I]	2.97
YAGNLHESGVHGALLALDRNFDHN [E19R]	2.06
YAGNLHESGVHGALLALDMNFDHN [E19M]	1.65
YAGNLHESGVHGALLALDANFDHN [E19A]	2.08
YAGNLHESGVHGALLALDYNFDHN [E19Y]	1.61
YAGNLHESGVHGALLALDKNFDHN [E19K]	1.5
YAGNLHESGVHGALLALDPNFDHN [E19P]	1.6
YAGNLHESGVHGALLALDGNFDHN [E19G]	2.1
YAGNLHESGVHGALLALDWNFDHN [E19W]	3.17
YAGNLHESGVHGALLALDHNFDHN [E19H]	1.31
YAGNLHESGVHGALLALDENFDAN [H23A]	2.18
YAGNLHESGVHGALLALDENFDEN [H23E]	2.25

Variant	protein stability index
YAGNLHESGVHGALLALDENFDDN [H23D]	2.58
YAGNLHESGVHGALLALDENFDCN [H23C]	2.13
YAGNLHESGVHGALLALDENNDHN [F21N]	3.85
YAGNLHESGVHGALLALDENSDHN [F21S]	3.56
YAGNLHESGVHGALLALDENWDHN [F21W]	2.69
YAGNLHESGVHGALLALDENPDHN [F21P]	3.45
YAGNLHESGVHGALLALDENQDHN [F21Q]	3.08
YAGNLHESGVHGALLALDENHDHN [F21H]	3
YAGNLHESGVHGALLALDENDDHN [F21D]	3.92
YAGNLHESGVHGALLALDENLDHN [F21L]	3.51
YAGNLHESGVHGALLALDENGDHN [F21G]	3.58
YAGNLHESGVHGALLALDENMDHN [F21M]	2.85
YAGNLHESGVHGALLALDENYDHN [F21Y]	2.6
YAGNLHESGVHGALLALDENTDHN [F21T]	3.37
YAGNLHESGVHGALLALDENIDHN [F21I]	2.69
YAGNLHESGVHGALLALDENADHN [F21A]	2.9
YAGNLHESGVHGALLALDENCDHN [F21C]	3.23
YAGNLHESGVHGALLALDENEDHN [F21E]	3.93
YAGNLHESGVHGALLALDENKDHN [F21K]	2.89
YAGNLHESGVHGALLALDENRDHN [F21R]	2.53
YAGNLHESGVHGALLALDENVDHN [F21V]	2.63
YAGNLHESGVHGALLALDENFGHN [D22G]	2.4
YAGNLHESGVHGALLALDENFKHN [D22K]	2.37
YAGNLHESGVHGALLALDENFCHN [D22C]	1.65

Variant	protein stability index
YAGNLHESGVHGALLALDENFSHN [D22S]	2.02
YAGNLHESGVHGALLALDENFQHN [D22Q]	2.2
YAGNLHESGVHGALLALDENFWHN [D22W]	2.41
YAGNLHESGVHGALLALDENFLHN [D22L]	1.46
YAGNLHESGVHGALLALDENFFHN [D22F]	2.01
YAGNLHESGVHGALLALDENFYHN [D22Y]	2.49
YAGNLHESGVHGALLALDENFPHN [D22P]	2.47
YAGNLHESGVHGALLALDENFTHN [D22T]	1.87
YAGNLHESGVHGALLALDENFRHN [D22R]	1.56
YAGNLHESGVHGALLALDENFEHN [D22E]	2.48
YAGNLHESGVHGALLALDENFAHN [D22A]	2.56
YAGNLHESGVHGALLALDENFMHN [D22M]	2.3
YAGNLHESGVHGALLALDENFHHN [D22H]	1.84
YAGNLHESGVHGALLALDENFIHN [D22I]	2.11
YAGNLHESGVHGALLALDENFVHN [D22V]	1.27
YAGNLHESGVHGALLALDENFNHN [D22N]	1.99
YAGNLHESGVHGALLALVENFDHN [D18V]	2.07
YAGNLHESGVHGALLALTENFDHN [D18T]	2.13
YAGNLHESGVHGALLALAENFDHN [D18A]	1.66
YAGNLHESGVHGALLALWENFDHN [D18W]	2
YAGNLHESGVHGALLALHENFDHN [D18H]	2.11
YAGNLHESGVHGALLALGENFDHN [D18G]	1.95
YAGNLHESGVHGALLALCENFDHN [D18C]	1.34
YAGNLHESGVHGALLALFENFDHN [D18F]	1.69

Variant	protein stability index
YAGNLHESGVHGALLALYENFDHN [D18Y]	2.14
YAGNLHESGVHGALLALSENFDHN [D18S]	1.87
YAGNLHESGVHGALLALKENFDHN [D18K]	2.54
YAGNLHESGVHGALLALLENFDHN [D18L]	1.76
YAGNLHESGVHGALLALRENFDHN [D18R]	2.55
YAGNLHESGVHGALLALMENFDHN [D18M]	2.38
YAGNLHESGVHGALLALQENFDHN [D18Q]	2.65
YAGNLHESGVHGALLALNENFDHN [D18N]	2.74
YAGNLHESGVHGALLALPENFDHN [D18P]	2.16
YAGNLHESGVHGALLALEENFDHN [D18E]	2.82
YAGNLHESGVHGALLALIENFDHN [D18I]	2.2
YAGNLHESGVHGALLANDENFDHN [L17N]	3.86
YAGNLHESGVHGALLAWDENFDHN [L17W]	2.4
YAGNLHESGVHGALLATDENFDHN [L17T]	3.04
YAGNLHESGVHGALLAQDENFDHN [L17Q]	3.37
YAGNLHESGVHGALLAIDENFDHN [L17I]	2.02
YAGNLHESGVHGALLAVDENFDHN [L17V]	2.47
YAGNLHESGVHGALLAYDENFDHN [L17Y]	1.76
YAGNLHESGVHGALLASDENFDHN [L17S]	4.03
YAGNLHESGVHGALLADDENFDHN [L17D]	4.18
YAGNLHESGVHGALLAFDENFDHN [L17F]	2.16
YAGNLHESGVHGALLAADENFDHN [L17A]	3.43
YAGNLHESGVHGALLAMDENFDHN [L17M]	2.96
YAGNLHESGVHGALLAKDENFDHN [L17K]	3.24

Variant	protein stability index
YAGNLHESGVHGALLAHDENFDHN [L17H]	4.06
YAGNLHESGVHGALLAEDENFDHN [L17E]	4.52
YAGNLHESGVHGALLARDENFDHN [L17R]	3.31
YAGNLHESGVHGALLAPDENFDHN [L17P]	3.35
YAGNLHESGVHGALLAGDENFDHN [L17G]	3.4
YAGNLHESGVHGALLACDENFDHN [L17C]	3.21
YAGNLHESGVHGWLLALDENFDHN [A13W]	3.04
YAGNLHESGVHGMLLALDENFDHN [A13M]	1.49
YAGNLHESGVHGHLLALDENFDHN [A13H]	2.67
YAGNLHESGVHGKLLALDENFDHN [A13K]	2.96
YAGNLHESGVHGLLLALDENFDHN [A13L]	2.06
YAGNLHESGVHGQLLALDENFDHN [A13Q]	3.8
YAGNLHESGVHGSLLALDENFDHN [A13S]	2.33
YAGNLHESGVHGILLALDENFDHN [A13I]	1.86
YAGNLHESGVHGTLLALDENFDHN [A13T]	2.86
YAGNLHESGVHGRLLALDENFDHN [A13R]	2.41
YAGNLHESGVHGNLLALDENFDHN [A13N]	2.66
YAGNLHESGVHGVLLALDENFDHN [A13V]	2.07
YAGNLHESGVHGPLLALDENFDHN [A13P]	2.96
YAGNLHESGVHGYLLALDENFDHN [A13Y]	3.02
